Assay results taken from patent publication US20140087995A1 (published 2014).
Numbered stars: 1 amine (or outer) side, 2 acyl side, 3 side chain; on linkers, the order of the positions; unused ones are H or OH. Bridge positions count the residues as written; N and C are the ends. Side chains are listed from the residue outwards. Ends that are not written are not given here. * marks the point of attachment. C20 diacid = O=C(O)CCCCCCCCCCCCCCCCCCC(=O)*; γGlu = O=C(O)[C@H](CCC(=O)[*:2])N[*:1]

T1: human amylin 3(a) receptor (human calcitonin receptor plus RAMP-3) (human, UniProt P30988 25-474; O60896 24-148, limits assumed)
T1 sequence (looked up) 1: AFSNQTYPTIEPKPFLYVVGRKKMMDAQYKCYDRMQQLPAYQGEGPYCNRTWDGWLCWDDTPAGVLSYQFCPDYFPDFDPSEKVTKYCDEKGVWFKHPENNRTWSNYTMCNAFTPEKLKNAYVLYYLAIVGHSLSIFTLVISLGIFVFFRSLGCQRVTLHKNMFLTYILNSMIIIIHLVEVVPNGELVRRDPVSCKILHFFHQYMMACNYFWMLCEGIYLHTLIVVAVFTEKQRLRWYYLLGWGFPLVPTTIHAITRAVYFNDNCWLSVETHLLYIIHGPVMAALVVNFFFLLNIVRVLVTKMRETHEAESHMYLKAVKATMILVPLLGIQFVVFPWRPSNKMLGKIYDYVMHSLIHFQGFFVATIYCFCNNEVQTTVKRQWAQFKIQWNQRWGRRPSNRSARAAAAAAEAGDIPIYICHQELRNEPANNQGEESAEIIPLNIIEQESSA
T1 sequence (looked up) 2: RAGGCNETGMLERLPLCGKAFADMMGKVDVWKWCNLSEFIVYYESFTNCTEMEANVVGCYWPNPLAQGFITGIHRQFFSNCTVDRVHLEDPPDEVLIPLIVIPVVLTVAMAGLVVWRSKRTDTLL

T2: human calcitonin receptor (human, UniProt P30988 25-474)
T2 sequence (looked up): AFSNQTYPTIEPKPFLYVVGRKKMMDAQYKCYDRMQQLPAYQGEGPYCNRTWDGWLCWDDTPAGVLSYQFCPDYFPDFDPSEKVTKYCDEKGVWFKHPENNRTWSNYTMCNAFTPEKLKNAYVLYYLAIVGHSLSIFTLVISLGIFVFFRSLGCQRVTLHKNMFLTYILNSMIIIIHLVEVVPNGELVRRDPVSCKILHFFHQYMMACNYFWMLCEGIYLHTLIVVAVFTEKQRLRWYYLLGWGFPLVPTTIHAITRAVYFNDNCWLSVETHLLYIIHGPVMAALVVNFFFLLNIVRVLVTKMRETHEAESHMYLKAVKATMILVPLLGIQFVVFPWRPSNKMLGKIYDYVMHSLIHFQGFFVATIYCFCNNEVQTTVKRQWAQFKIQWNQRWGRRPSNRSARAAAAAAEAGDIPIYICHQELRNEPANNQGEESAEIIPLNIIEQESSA


Experiments:
[1] = target: T1, human amylin 3(a) receptor (human …); experiment: cell-based or functional assay
[2] = target: T2, human calcitonin receptor; experiment: cell-based or functional assay
[3] = target: T1, human amylin 3(a) receptor (human …); experiment: SPA competition binding, displacement of 125I-rat amylin from membranes of Amylin 3(a)/CRE-luc BHK cells (Assay V)
Procedure, shortened: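 Membranes from BHK Amylin 3(a)/CRE-luc cells (35 ng/μL final) were mixed with SPA beads and test compounds in 50 mM Hepes pH 7.4 with 1 mM CaCl2, 5 mM MgCl₂, 0.1% OA and 0.02% Tween20. Incubation ran 120 min at 25° C with shaking; IC₅₀ came from one-site competition fitting.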

Row | Binder | Ratio hCT/hAmylin funct. [1] | hAmylin-R funct. EC50 [1] [nM] | hCTR funct. EC50 [2] [nM] | IC50 [3] [nM]
1 | K([γGlu-C20 diacid])CNTATCATQRLAEFLRHSSPNFGAIPSSTNVGPNTP-NH2 (disulfide 2-7; N-terminus assumed; SMILES CC[C@H](C)[C@H](NC(=O)[C@H](C)NC(=O)CNC(=O)[C@H](Cc1ccccc1)NC(=O)[C@H](CC(N)=O)NC(=O)[C@@H]1CCCN1C(=O)[C@H](CO)NC(=O)[C@H](CO)NC(=O)[C@H](Cc1c[nH]cn1)NC(=O)[C@H](CCCNC(=N)N)NC(=O)[C@H](CC(C)C)NC(=O)[C@H](Cc1ccccc1)NC(=O)[C@H](CCC(=O)O)NC(=O)[C@H](C)NC(=O)[C@H](CC(C)C)NC(=O)[C@H](CCCNC(=N)N)NC(=O)[C@H](CCC(N)=O)NC(=O)[C@@H](NC(=O)[C@H](C)NC(=O)[C@@H]1CSSC[C@H](NC(=O)[C@@H](N)CCCCNC(=O)CC[C@H](NC(=O)CCCCCCCCCCCCCCCCCCC(=O)O)C(=O)O)C(=O)N[C@@H](CC(N)=O)C(=O)N[C@@H]([C@@H](C)O)C(=O)N[C@@H](C)C(=O)N[C@@H]([C@@H](C)O)C(=O)N1)[C@@H](C)O)C(=O)N1CCC[C@H]1C(=O)N[C@@H](CO)C(=O)N[C@@H](CO)C(=O)N[C@H](C(=O)N[C@@H](CC(N)=O)C(=O)N[C@H](C(=O)NCC(=O)N1CCC[C@H]1C(=O)N[C@@H](CC(N)=O)C(=O)N[C@H](C(=O)N1CCC[C@H]1C(N)=O)[C@@H](C)O)C(C)C)[C@@H](C)O) | 0.9 | 0.105 | 0.09 | 0.214
2 | K([γGlu-γGlu-C20 diacid])CNTATCATQRLAEFLRHSSPNFGAIPSSTNVGRNTY-NH2 (disulfide 2-7; N-terminus assumed; SMILES CC[C@H](C)[C@H](NC(=O)[C@H](C)NC(=O)CNC(=O)[C@H](Cc1ccccc1)NC(=O)[C@H](CC(N)=O)NC(=O)[C@@H]1CCCN1C(=O)[C@H](CO)NC(=O)[C@H](CO)NC(=O)[C@H](Cc1c[nH]cn1)NC(=O)[C@H](CCCNC(=N)N)NC(=O)[C@H](CC(C)C)NC(=O)[C@H](Cc1ccccc1)NC(=O)[C@H](CCC(=O)O)NC(=O)[C@H](C)NC(=O)[C@H](CC(C)C)NC(=O)[C@H](CCCNC(=N)N)NC(=O)[C@H](CCC(N)=O)NC(=O)[C@@H](NC(=O)[C@H](C)NC(=O)[C@@H]1CSSC[C@H](NC(=O)[C@@H](N)CCCCNC(=O)CC[C@H](NC(=O)CC[C@H](NC(=O)CCCCCCCCCCCCCCCCCCC(=O)O)C(=O)O)C(=O)O)C(=O)N[C@@H](CC(N)=O)C(=O)N[C@@H]([C@@H](C)O)C(=O)N[C@@H](C)C(=O)N[C@@H]([C@@H](C)O)C(=O)N1)[C@@H](C)O)C(=O)N1CCC[C@H]1C(=O)N[C@@H](CO)C(=O)N[C@@H](CO)C(=O)N[C@H](C(=O)N[C@@H](CC(N)=O)C(=O)N[C@H](C(=O)NCC(=O)N[C@@H](CCCNC(=N)N)C(=O)N[C@@H](CC(N)=O)C(=O)N[C@H](C(=O)N[C@@H](Cc1ccc(O)cc1)C(N)=O)[C@@H](C)O)C(C)C)[C@@H](C)O, also called compound 88) | 8.5 | 0.773 | 6.55 | 0.75
3 | K([γGlu-γGlu-C20 diacid])CNTATCATQRLAEFLRHSSPNFGAIPSSTNVGRETY-NH2 (disulfide 2-7; N-terminus assumed; SMILES CC[C@H](C)[C@H](NC(=O)[C@H](C)NC(=O)CNC(=O)[C@H](Cc1ccccc1)NC(=O)[C@H](CC(N)=O)NC(=O)[C@@H]1CCCN1C(=O)[C@H](CO)NC(=O)[C@H](CO)NC(=O)[C@H](Cc1c[nH]cn1)NC(=O)[C@H](CCCNC(=N)N)NC(=O)[C@H](CC(C)C)NC(=O)[C@H](Cc1ccccc1)NC(=O)[C@H](CCC(=O)O)NC(=O)[C@H](C)NC(=O)[C@H](CC(C)C)NC(=O)[C@H](CCCNC(=N)N)NC(=O)[C@H](CCC(N)=O)NC(=O)[C@@H](NC(=O)[C@H](C)NC(=O)[C@@H]1CSSC[C@H](NC(=O)[C@@H](N)CCCCNC(=O)CC[C@H](NC(=O)CC[C@H](NC(=O)CCCCCCCCCCCCCCCCCCC(=O)O)C(=O)O)C(=O)O)C(=O)N[C@@H](CC(N)=O)C(=O)N[C@@H]([C@@H](C)O)C(=O)N[C@@H](C)C(=O)N[C@@H]([C@@H](C)O)C(=O)N1)[C@@H](C)O)C(=O)N1CCC[C@H]1C(=O)N[C@@H](CO)C(=O)N[C@@H](CO)C(=O)N[C@H](C(=O)N[C@@H](CC(N)=O)C(=O)N[C@H](C(=O)NCC(=O)N[C@@H](CCCNC(=N)N)C(=O)N[C@@H](CCC(=O)O)C(=O)N[C@H](C(=O)N[C@@H](Cc1ccc(O)cc1)C(N)=O)[C@@H](C)O)C(C)C)[C@@H](C)O) |  | 0.703 | 7.43 | 0.957
4 | K([γGlu-γGlu-C20 diacid])CNTATCATQRLAEFLRHSSPNFGAIPSSTNVGSRTY-NH2 (disulfide 2-7; N-terminus assumed; SMILES CC[C@H](C)[C@H](NC(=O)[C@H](C)NC(=O)CNC(=O)[C@H](Cc1ccccc1)NC(=O)[C@H](CC(N)=O)NC(=O)[C@@H]1CCCN1C(=O)[C@H](CO)NC(=O)[C@H](CO)NC(=O)[C@H](Cc1c[nH]cn1)NC(=O)[C@H](CCCNC(=N)N)NC(=O)[C@H](CC(C)C)NC(=O)[C@H](Cc1ccccc1)NC(=O)[C@H](CCC(=O)O)NC(=O)[C@H](C)NC(=O)[C@H](CC(C)C)NC(=O)[C@H](CCCNC(=N)N)NC(=O)[C@H](CCC(N)=O)NC(=O)[C@@H](NC(=O)[C@H](C)NC(=O)[C@@H]1CSSC[C@H](NC(=O)[C@@H](N)CCCCNC(=O)CC[C@H](NC(=O)CC[C@H](NC(=O)CCCCCCCCCCCCCCCCCCC(=O)O)C(=O)O)C(=O)O)C(=O)N[C@@H](CC(N)=O)C(=O)N[C@@H]([C@@H](C)O)C(=O)N[C@@H](C)C(=O)N[C@@H]([C@@H](C)O)C(=O)N1)[C@@H](C)O)C(=O)N1CCC[C@H]1C(=O)N[C@@H](CO)C(=O)N[C@@H](CO)C(=O)N[C@H](C(=O)N[C@@H](CC(N)=O)C(=O)N[C@H](C(=O)NCC(=O)N[C@@H](CO)C(=O)N[C@@H](CCCNC(=N)N)C(=O)N[C@H](C(=O)N[C@@H](Cc1ccc(O)cc1)C(N)=O)[C@@H](C)O)C(C)C)[C@@H](C)O, also called compound 89) | 27.8 | 0.404 | 11.2 | 1.16
5 | K([γGlu-γGlu-C20 diacid])CNTATCATQRLAEFLRHSSPNFGAIPSSTNVGHETY-NH2 (disulfide 2-7; N-terminus assumed; SMILES CC[C@H](C)[C@H](NC(=O)[C@H](C)NC(=O)CNC(=O)[C@H](Cc1ccccc1)NC(=O)[C@H](CC(N)=O)NC(=O)[C@@H]1CCCN1C(=O)[C@H](CO)NC(=O)[C@H](CO)NC(=O)[C@H](Cc1c[nH]cn1)NC(=O)[C@H](CCCNC(=N)N)NC(=O)[C@H](CC(C)C)NC(=O)[C@H](Cc1ccccc1)NC(=O)[C@H](CCC(=O)O)NC(=O)[C@H](C)NC(=O)[C@H](CC(C)C)NC(=O)[C@H](CCCNC(=N)N)NC(=O)[C@H](CCC(N)=O)NC(=O)[C@@H](NC(=O)[C@H](C)NC(=O)[C@@H]1CSSC[C@H](NC(=O)[C@@H](N)CCCCNC(=O)CC[C@H](NC(=O)CC[C@H](NC(=O)CCCCCCCCCCCCCCCCCCC(=O)O)C(=O)O)C(=O)O)C(=O)N[C@@H](CC(N)=O)C(=O)N[C@@H]([C@@H](C)O)C(=O)N[C@@H](C)C(=O)N[C@@H]([C@@H](C)O)C(=O)N1)[C@@H](C)O)C(=O)N1CCC[C@H]1C(=O)N[C@@H](CO)C(=O)N[C@@H](CO)C(=O)N[C@H](C(=O)N[C@@H](CC(N)=O)C(=O)N[C@H](C(=O)NCC(=O)N[C@@H](Cc1c[nH]cn1)C(=O)N[C@@H](CCC(=O)O)C(=O)N[C@H](C(=O)N[C@@H](Cc1ccc(O)cc1)C(N)=O)[C@@H](C)O)C(C)C)[C@@H](C)O) |  | 0.445 | 7.05 | 0.525
